Positions count from the first letter of the chain named.
Columns and labels:
human CD45RC [1] = biological target: T1, human CD45RC (human, UniProt P08575 26-1306); experiment: flow cytometry, human whole blood; ILC1 [2]
T1 construct: In flow cytometry the protein is on human PBMC (which may also carry other CD45 isoforms with the C determinant); in the SPR assay it is in solubilised membranes of CD45RC-high PBMC or of CHO cells transfected with CD45RC; also called hCD45RC
T1 sequence: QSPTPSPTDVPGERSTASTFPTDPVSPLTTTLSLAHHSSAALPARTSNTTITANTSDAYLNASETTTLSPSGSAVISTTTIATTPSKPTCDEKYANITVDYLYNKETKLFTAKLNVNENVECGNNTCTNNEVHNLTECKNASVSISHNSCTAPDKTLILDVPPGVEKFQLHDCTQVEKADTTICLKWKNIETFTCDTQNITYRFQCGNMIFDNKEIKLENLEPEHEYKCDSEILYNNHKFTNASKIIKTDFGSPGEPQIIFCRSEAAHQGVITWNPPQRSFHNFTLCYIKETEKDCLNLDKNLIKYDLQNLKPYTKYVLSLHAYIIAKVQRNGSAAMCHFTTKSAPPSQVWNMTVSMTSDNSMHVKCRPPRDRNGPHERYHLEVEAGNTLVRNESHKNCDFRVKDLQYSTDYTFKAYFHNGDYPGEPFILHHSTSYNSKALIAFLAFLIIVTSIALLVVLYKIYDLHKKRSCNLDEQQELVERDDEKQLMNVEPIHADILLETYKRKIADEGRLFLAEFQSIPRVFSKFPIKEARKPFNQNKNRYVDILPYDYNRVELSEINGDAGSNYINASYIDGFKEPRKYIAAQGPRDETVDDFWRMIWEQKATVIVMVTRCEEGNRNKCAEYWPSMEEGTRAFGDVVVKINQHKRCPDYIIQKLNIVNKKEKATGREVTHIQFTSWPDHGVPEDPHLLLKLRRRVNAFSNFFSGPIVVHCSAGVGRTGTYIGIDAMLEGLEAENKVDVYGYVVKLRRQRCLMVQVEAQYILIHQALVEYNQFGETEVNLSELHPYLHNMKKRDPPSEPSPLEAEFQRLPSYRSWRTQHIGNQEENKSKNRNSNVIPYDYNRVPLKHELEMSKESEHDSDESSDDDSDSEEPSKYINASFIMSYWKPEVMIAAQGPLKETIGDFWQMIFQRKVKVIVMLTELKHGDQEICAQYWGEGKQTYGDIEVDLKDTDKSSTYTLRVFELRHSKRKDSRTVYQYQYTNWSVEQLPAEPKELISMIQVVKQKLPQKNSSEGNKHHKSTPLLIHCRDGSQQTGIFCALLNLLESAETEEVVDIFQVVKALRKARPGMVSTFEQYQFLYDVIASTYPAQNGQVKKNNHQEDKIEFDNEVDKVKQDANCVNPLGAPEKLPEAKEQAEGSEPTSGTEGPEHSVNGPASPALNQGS

human CD45RC [2] = biological target: T1, human CD45RC; experiment: flow cytometry, human whole blood; B cells [1]
human CD45RC [3] = biological target: T1, human CD45RC; experiment: flow cytometry, human whole blood; NK [1]
human CD45RC [4] = biological target: T1, human CD45RC; experiment: flow cytometry, human whole blood; ILC2 [2]
human CD45RC [5] = biological target: T1, human CD45RC; experiment: flow cytometry, human whole blood; CD4+ T [1]
human CD45RC [6] = biological target: T1, human CD45RC; experiment: flow cytometry, human whole blood; Monocytes CD14intCD16+ [3]
human CD45RC [7] = biological target: T1, human CD45RC; experiment: flow cytometry, human whole blood; Monocytes CD14highCD16- [2]
human CD45RC [8] = biological target: T1, human CD45RC; experiment: flow cytometry, human whole blood; CD3+ TCRgd [1]
human CD45RC [9] = biological target: T1, human CD45RC; experiment: flow cytometry, human whole blood; ILC3 [2]
human CD45RC [10] = biological target: T1, human CD45RC; experiment: flow cytometry, human whole blood; Monocytes CD14+ [2]
human CD45RC [11] = biological target: T1, human CD45RC; experiment: flow cytometry, human whole blood; CD8+ T [1]
human CD45RC [12] = biological target: T1, human CD45RC; experiment: flow cytometry, human whole blood; NKT [2]
human CD45RC [13] = biological target: T1, human CD45RC; experiment: flow cytometry, human whole blood; MAIT [2]
human CD45RC [14] = biological target: T1, human CD45RC; experiment: flow cytometry, human whole blood; pDC [3]
human CD45RC [15] = biological target: T1, human CD45RC; experiment: flow cytometry, human whole blood; CD4+ Treg (CD25+CD127-) [1]
human CD45RC [16] = biological target: T1, human CD45RC; experiment: flow cytometry, human whole blood; T cells [1]
human CD45RC [17] = biological target: T1, human CD45RC; experiment: flow cytometry, human whole blood; Neutrophils [3]
human CD45RC [18] = biological target: T1, human CD45RC; experiment: flow cytometry, human whole blood; Basophils [3]
human CD45RC [19] = biological target: T1, human CD45RC; experiment: flow cytometry, human whole blood; mDC [3]
human CD45RC [20] = biological target: T1, human CD45RC; experiment: flow cytometry, human whole blood; iNKT [2]
human CD45RC [21] = biological target: T1, human CD45RC; experiment: flow cytometry, human whole blood; CD3+ TCRab [1]
human CD45RC [22] = biological target: T1, human CD45RC; experiment: flow cytometry, human whole blood; Eosinophils [3]
[23] = biological target: macaque CD45RC (cynomolgus macaque); experiment: flow cytometry, cynomolgus macaque PBMC, CD3- cells
[24] = biological target: macaque CD45RC (cynomolgus macaque); experiment: flow cytometry, cynomolgus macaque PBMC, CD3+ cells (p-1488)
[25] = biological target: macaque CD45RC (cynomolgus macaque); experiment: flow cytometry, cynomolgus macaque PBMC, CD3- cells; 10 µg/ml (p-1486)
[26] = biological target: macaque CD45RC (cynomolgus macaque); experiment: flow cytometry, cynomolgus macaque PBMC, CD3+ cells (p-1488); 10 µg/ml (p-1486)
human CD45RC [27] = biological target: T1, human CD45RC; experiment: SPR (BIAcore 3000 / T200), ABIS-45RC immobilised on CM5 chip, solubilised membranes of CD45RC-high PBMC or CD45RC-transfected CHO cells as analyte, 25 C, single cycle kinetics
From the text: Briefly, 1×10⁷ CD45RC^high PBMCs or CHO cells expressing CD45RC after plasmid transfection were solubilized using the Mem-PER membrane isolation kit (Thermo-fisher).

With MT2 (antibody) the % of cells CD45RC high (human CD45RC [1]) was 9.3%, the % of cells CD45RC low (human CD45RC [1]) was 27.5% and the % of cells CD45RC negative (human CD45RC [1]) was 63.2%. The % of cells CD45RC high (human CD45RC [2]) was 79.9%, the % of cells CD45RC low (human CD45RC [2]) was 20.1% and the % of cells CD45RC negative (human CD45RC [2]) was 0%. For the same molecule, the % of cells CD45RC high (human CD45RC [3]) was 28.6%, the % of cells CD45RC low (human CD45RC [3]) was 70.4% and the % of cells CD45RC negative (human CD45RC [3]) was 1%. The % of cells CD45RC high (human CD45RC [4]) was 45%, the % of cells CD45RC low (human CD45RC [4]) was 49.5% and the % of cells CD45RC negative (human CD45RC [4]) was 5.5%. For the same molecule, the % of cells CD45RC high (human CD45RC [5]) was 3.64%, the % of cells CD45RC low (human CD45RC [5]) was 47.2% and the % of cells CD45RC negative (human CD45RC [5]) was 49.2%. For the same molecule, the % of cells CD45RC high (human CD45RC [6]) was 6.45%, the % of cells CD45RC low (human CD45RC [6]) was 87.7% and the % of cells CD45RC negative (human CD45RC [6]) was 5.87%. The % of cells CD45RC high (human CD45RC [7]) was 0.091%, the % of cells CD45RC low (human CD45RC [7]) was 38.3% and the % of cells CD45RC negative (human CD45RC [7]) was 61.6%. For the same molecule, the % of cells CD45RC high (human CD45RC [8]) was 1.93%, the % of cells CD45RC low (human CD45RC [8]) was 90.6% and the % of cells CD45RC negative (human CD45RC [8]) was 7.46%. The % of cells CD45RC high (human CD45RC [9]) was 50%, the % of cells CD45RC low (human CD45RC [9]) was 50% and the % of cells CD45RC negative (human CD45RC [9]) was 0%. For the same molecule, the % of cells CD45RC high (human CD45RC [10]) was 0.43%, the % of cells CD45RC low (human CD45RC [10]) was 43.9% and the % of cells CD45RC negative (human CD45RC [10]) was 55.6%. For the same molecule, the % of cells CD45RC high (human CD45RC [11]) was 38.8%, the % of cells CD45RC low (human CD45RC [11]) was 39.7% and the % of cells CD45RC negative (human CD45RC [11]) was 21.5%. The % of cells CD45RC high (human CD45RC [12]) was 34.4%, the % of cells CD45RC low (human CD45RC [12]) was 54.2% and the % of cells CD45RC negative (human CD45RC [12]) was 11.4%. It also gave a % of cells CD45RC high (human CD45RC [13]) of 5.89%, a % of cells CD45RC low (human CD45RC [13]) of 71% and a % of cells CD45RC negative (human CD45RC [13]) of 23.2%. For the same molecule, the % of cells CD45RC high (human CD45RC [14]) was 1.84%, the % of cells CD45RC low (human CD45RC [14]) was 97.9% and the % of cells CD45RC negative (human CD45RC [14]) was 0.23%. It also gave a % of cells CD45RC high (human CD45RC [15]) of 3.52%, a % of cells CD45RC low (human CD45RC [15]) of 19.8% and a % of cells CD45RC negative (human CD45RC [15]) of 76.7%. The % of cells CD45RC high (human CD45RC [16]) was 7.43%, the % of cells CD45RC low (human CD45RC [16]) was 49.7% and the % of cells CD45RC negative (human CD45RC [16]) was 42.9%. It also gave a % of cells CD45RC high (human CD45RC [17]) of 0.014%, a % of cells CD45RC low (human CD45RC [17]) of 19.3% and a % of cells CD45RC negative (human CD45RC [17]) of 80.7%. The % of cells CD45RC high (human CD45RC [18]) was 0%, the % of cells CD45RC low (human CD45RC [18]) was 7.3% and the % of cells CD45RC negative (human CD45RC [18]) was 92.7%. For the same molecule, the % of cells CD45RC high (human CD45RC [19]) was 0%, the % of cells CD45RC low (human CD45RC [19]) was 14.3% and the % of cells CD45RC negative (human CD45RC [19]) was 85.7%. For the same molecule, the % of cells CD45RC high (human CD45RC [20]) was 24.1%, the % of cells CD45RC low (human CD45RC [20]) was 61.6% and the % of cells CD45RC negative (human CD45RC [20]) was 14.3%. For the same molecule, the % of cells CD45RC high (human CD45RC [21]) was 8.34%, the % of cells CD45RC low (human CD45RC [21]) was 46.2% and the % of cells CD45RC negative (human CD45RC [21]) was 45.5%. For the same molecule, the % of cells CD45RC high (human CD45RC [22]) was 0.47%, the % of cells CD45RC low (human CD45RC [22]) was 90.5% and the % of cells CD45RC negative (human CD45RC [22]) was 9.08%.

For Isotype (antibody), the % of cells CD45RC+ [23] was 2.7% and the % of cells CD45RC+ [24] was 4.37%.

B1: ABIS-45RC (antibody, mouse IgG1, kappa, V domains shown)
VH: QVQLQQSGAELVRPGTSVKMSCKAAGYTFTNYYIGWVKQRPGHGLEWIGDIFPGGDYANSNEKFKGKATLTADTSSSTAYMQLSSLTSEDSAIYYCVRRNFDYWGQGTTLTVSS
VL: QIVLTQSPTIMSASPGEKVTITCSASSSVSYMHWFQQKTGTSPRLWIYNTSNLPSGVPARFSGSGSGTSYSLTISRMEAEDAATYYCQQRSSYPLTFGAGTKLELKR
notes: the variable domains are the same; also called murine ABIS-45RC; murine anti-hCD45RC antibody of the invention
B1 showed a % of cells CD45RC+ [25] of 74.1%, a % of cells CD45RC+ [26] of 26.1% and a Kd (human CD45RC [27]) of 50 nM. The koff (human CD45RC [27]) was 0.0144 s⁻¹ and the kon (human CD45RC [27]) was 291000 M⁻¹ s⁻¹.

B2: Anti-45RC Variant A (antibody, human IgG1, kappa, V domains shown)
VH: QVQLVQSGAEVKKPGASVKVSCKASGYTFTNYYIGWVRQAPGQGLEWIGDIFPGGDYANSNEKFKGRVTLTADTSISTAYMELSRLRSDDTVVYYCVRRNFDYWGQGTLVTVSS
VL: DIQLTQSPSFLSASVGDRVTITCSASSSVSYMHWFQQKPGKAPKLWIYNTSNLPSGVPSRFSGSGSGTEYTLTISSLQPEDFATYYCQQRSSYPLTFGGGTKVEIKR
B2 showed a % of cells CD45RC+ [25] of 75.6% and a % of cells CD45RC+ [26] of 17.2%.

B3: Anti-45RC Variant A1 (antibody, human IgG1, kappa, V domains shown)
VH: B2 VH with A58T, S60Y, N61A, K65Q
VL: B2 VL with S24R, F35Y
In the case of B3, the % of cells CD45RC+ [25] is reported as 76.3% and the % of cells CD45RC+ [26] is reported as 15.6%.

B4: Anti-45RC Variant A3 (antibody, human IgG1, kappa, V domains shown)
VH: B2 VH with D56G, A58T, S60Y, N61A, K65Q
VL: B2 VL with S24R, F35Y
For B4, the % of cells CD45RC+ [25] was 82.6% and the % of cells CD45RC+ [26] was 15.2%.
